Residue numbers refer to the chain shown, from its start. Numbers in names are those of the source. Like-named read-outs stand apart in the source and are kept apart here. Values belong to the binder of their own block, whether it stands above or below them.
What was measured:
H3.3(G90M)/H4 = H3.3(G90M)/H4 (human | X. laevis, UniProt P62799 1-103); assay: ITC
H3.3/H4 [1] = target: T1, H3.3/H4 (human | X. laevis, UniProt P84243 1-136; P62799 1-103); assay: FP
H3.3/H4 [2] = target: T1, H3.3/H4; assay: FP; remark: listed apart in the source
H3.3/H4 [3] = target: T1, H3.3/H4; assay: ITC
H3.3/H4 [4] = target: T1, H3.3/H4; assay: ITC; remark: listed apart in the source

B1: UBN1(92–175) E147A (protein)
chain: NDEEKERHKVEALARKFEEKYGGKKRRKDRIQDLIDMGYGYDESDSFIDNSEAYDALVPASLTTKYGGFYINSGTLQFRQASES
IC50 (H3.3/H4 [2]): 22.9 µM

B2: UBN1(92–175) E143A (protein)
chain: B1 chain with E52A, A56E
IC50 (H3.3/H4 [2]): 29.3 µM

B3: UBN1(92–175) Y145A (protein)
chain: B1 chain with Y54A, A56E
IC50 (H3.3/H4 [2]): 16.4 µM

B6: UBN1(92–175) S137A (domain or fragment)
chain: B1 chain with S46A, A56E
IC50 (H3.3/H4 [2]): 16.2 µM

B7: UBN1(92–175) D146A (protein)
chain: B1 chain with D55A, A56E
IC50 (H3.3/H4 [2]): 23 µM

B10: UBN1(92–175) G129A (protein)
chain: B1 chain with G38A, A56E
IC50 (H3.3/H4 [2]): 67.8 µM

B11: UBN1(92–175) Q123A (protein)
chain: B1 chain with Q32A, A56E
IC50 (H3.3/H4 [2]): 13.8 µM

B12: UBN1(92–175) G131A (protein)
chain: B1 chain with G40A, A56E
IC50 (H3.3/H4 [2]): 19.9 µM

B14: UBN1(92–175) A144I (protein)
chain: B1 chain with A53I, A56E
IC50 (H3.3/H4 [2]): 16.3 µM

B15: UBN1(92–175) I126A (protein)
chain: B1 chain with I35A, A56E
IC50 (H3.3/H4 [2]): 13.8 µM

B17: UBN1(92–175) I122A (protein)
chain: B1 chain with I31A, A56E
IC50 (H3.3/H4 [2]): 16.9 µM

B18: UBN1(92–175) D127A (protein)
chain: B1 chain with D36A, A56E
IC50 (H3.3/H4 [2]): 21.1 µM

The remaining lines, values ahead:

Kd (H3.3(G90M)/H4): 115 µM
IC50 (H3.3/H4 [1]): 46.4 µM
Binder: IQDLIDMGYGYDESDSFIDNSEAYDEL [UBN1(122–148) peptide]

IC50 (H3.3/H4 [2]): 19.6 µM
B4: UBN1(92–175) L148A (protein)
chain: B1 chain with A56E, L57A

IC50 (H3.3/H4 [2]): 15.1 µM
B5: UBN1(92–175) L125A (protein)
chain: B1 chain with L34A, A56E

IC50 (H3.3/H4 [2]): 22.6 µM
B8: UBN1(92–175) M128A (protein)
chain: B1 chain with M37A, A56E

IC50 (H3.3/H4 [2]): 14.4 µM
B9: UBN1(92–175) Y130A (protein)
chain: B1 chain with Y39A, A56E

IC50 (H3.3/H4 [2]): 19.6 µM
B13: UBN1(92–175) D124A (protein)
chain: B1 chain with D33A, A56E

Kd (H3.3/H4 [3]): 6.9 µM
IC50 (H3.3/H4 [2]): 16.6 µM
B16: UBN1(92–175) (domain or fragment)
chain: B1 chain with A56E

Kd (H3.3/H4 [4]): 14.6 µM
B19: UBN1(122–175) (domain or fragment)
chain: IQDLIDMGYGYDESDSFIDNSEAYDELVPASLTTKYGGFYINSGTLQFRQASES

Kd (H3.3/H4 [4]): 16.5 µM
B20: UBN1(92–148) (domain or fragment)
chain: NDEEKERHKVEALARKFEEKYGGKKRRKDRIQDLIDMGYGYDESDSFIDNSEAYDEL
